Test results as given in patent US20040072152A1.
Values joined by “and” are separate entries in the source; they are usually repeats but may differ in a detail not shown here. Equal values may be shown once.

Columns and labels:
Details in all cases: scale: ratio of % tetramer-binding CD8alpha-high cells, bound/unbound fraction
[1] = target: E-selectin expressed on CHO-E cells (UniProt P16581); test: un-manipulated PBMC, one hour rotary co-incubation with CHO-E monolayer, flow cytometry with tetramer B7-RPR
[2] = target: E-selectin expressed on CHO-E cells (UniProt P16581); test: peptide-stimulated PBMC, one hour rotary co-incubation with CHO-E monolayer, flow cytometry with tetramer B7-APA
[3] = target: E-selectin expressed on CHO-E cells (UniProt P16581); test: peptide-stimulated PBMC, one hour rotary co-incubation with CHO-E monolayer, flow cytometry with tetramer B7-RPR

CHO-E-selectin enrichment [1]: 13.2 and 10.1 and 5.6 | CHO-E-selectin enrichment [2]: 8.3 | CHO-E-selectin enrichment [3]: 9.5
Substance: CLA-associated E-selectin ligand on HSV-2-specific CD8+ T-cells
